For the test, the target named is His-tagged Dock180 (UniProt Q14185). As to the kind of experiment: cell-based or functional assay.

Sequence of ELMO1-GFP (Q8BPU7 whole entry): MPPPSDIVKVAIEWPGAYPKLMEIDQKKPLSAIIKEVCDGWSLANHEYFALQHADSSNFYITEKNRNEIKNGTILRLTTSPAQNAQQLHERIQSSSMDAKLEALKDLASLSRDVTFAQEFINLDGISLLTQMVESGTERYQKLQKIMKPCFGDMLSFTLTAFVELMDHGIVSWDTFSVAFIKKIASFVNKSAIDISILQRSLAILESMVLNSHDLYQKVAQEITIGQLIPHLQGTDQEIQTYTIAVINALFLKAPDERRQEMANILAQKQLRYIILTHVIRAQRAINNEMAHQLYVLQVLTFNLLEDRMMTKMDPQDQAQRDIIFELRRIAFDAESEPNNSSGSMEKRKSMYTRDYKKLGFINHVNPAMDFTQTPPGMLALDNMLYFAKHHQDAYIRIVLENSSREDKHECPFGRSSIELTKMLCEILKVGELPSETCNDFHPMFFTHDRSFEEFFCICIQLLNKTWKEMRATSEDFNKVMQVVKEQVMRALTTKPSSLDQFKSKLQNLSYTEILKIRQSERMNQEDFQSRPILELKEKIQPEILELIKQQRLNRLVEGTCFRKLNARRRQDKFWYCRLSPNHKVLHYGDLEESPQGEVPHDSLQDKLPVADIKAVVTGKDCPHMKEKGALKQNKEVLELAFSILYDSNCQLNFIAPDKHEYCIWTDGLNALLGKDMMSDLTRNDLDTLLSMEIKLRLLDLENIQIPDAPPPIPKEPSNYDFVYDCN

ELMO1-GFP (from UniProt Q8BPU7 1-727) came in with a bead uptake in the LR73 phagocytosis assay (GFP positive cells with engulfed particles) of 2 fold.

(Values after patent US20030028904A1.)
